What was measured:
[1] = target: recombinant interleukin-15Rα-sushi-Fc fusion protein (human); assay: pull-down; rILR-Fc/PhA NPs incubated with rIL-15 at 37 °C for 30 min in PBS; nanoparticles adsorbed on a Protein A agarose column; free rIL-15 quantified by sandwich ELISA
[2] = target: recombinant interleukin-15Rα-sushi-Fc fusion protein (human)
[3] = target: commercial whole IL-15Rα fusion protein (rIL-15Rα-Fc) (UniProt Q13261); assay: not stated; affinity shown in Figure S3A,B; method not told in the main text
commercial whole IL-15Rα fusion protein (rIL-15Rα-Fc), sequence (Q13261 31-205): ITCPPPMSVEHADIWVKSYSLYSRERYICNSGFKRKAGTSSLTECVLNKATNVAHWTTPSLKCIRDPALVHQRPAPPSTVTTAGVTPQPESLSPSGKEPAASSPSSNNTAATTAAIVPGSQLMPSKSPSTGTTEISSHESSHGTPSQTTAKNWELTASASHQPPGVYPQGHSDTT

[4] = target: recombinant interleukin-15Rα-sushi-Fc fusion protein (human); assay: as above
[5] = target: commercial whole IL-15Rα fusion protein (rIL-15Rα-Fc) (UniProt Q13261)
[6] = target: recombinant interleukin-15Rα-sushi-Fc fusion protein (human); remark: listed apart in the source

recombinant wild-type IL-15, sequence (P40933 49-162): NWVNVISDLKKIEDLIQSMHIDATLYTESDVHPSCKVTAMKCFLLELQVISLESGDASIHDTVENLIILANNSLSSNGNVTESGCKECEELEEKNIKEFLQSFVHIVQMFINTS

Row | Substance | encapsulation efficiency (percent of rIL-15 held by the rILR-Fc/PhA/rIL-15 NPs) [1] [%] | molar ratio of rIL-15 to rILR-Fc in the nanoparticles [1] | serum elimination half-life (t1/2) of rIL-15 in mice after i.v. injection of rILR-Fc/PhA/rIL-15 NPs (free rIL-15: 20.24 min) [2] [min] | affinity [3] [nM] | affinity [4] [nM] | EC50 of M-07e cell proliferation, rIL-15-wt pre-associated with rIL-15Rα-Fc (rIL-15-wt alone: 3.26 nM) [5] [nM] | EC50 of M-07e cell proliferation, rIL-15-wt pre-associated with rILR-Fc (rIL-15-wt alone: 3.26 nM) [6] [nM]
1 | recombinant IL-15 (N72D-mutated human IL-15) (ligand) | 99.5 | 0.81 | 39.4 | 0.115 | 0.24 | – | –
2 | recombinant wild-type IL-15 (from UniProt P40933 49-162) (ligand) | – | – | – | – | – | 1.65 | 1.62

Reference: publication PMC12114846, “Interleukin-15Rα-Sushi-Fc Fusion Protein Co-Hitchhikes Interleukin-15 and Pheophorbide A for Cancer Photoimmunotherapy” (Pharmaceutics, 2025)
